The supplement of paper PMC12764529
± gives the half width of the 95% confidence interval.

test: folding stability dG unfold from trypsin proteolysis; higher = more stable
In short: (§1)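 Unfolding free energy was derived, per protease or combined, against a sequence-predicted unfolded-state K50 and a shared folded-state K50, starting from K50 inferred by Bayesian fitting of sequencing counts. Digestion with trypsin and chymotrypsin was carried out on designed mini-proteins under 80 residues without cysteine in a PA-tagged cDNA display construct. Only designs with AlphaFold2 dimer inter-PAE above 15 were kept.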

Point of comparison: “SAGGSAGGGITAKEAAELLEKYLKEKGYDYEVKIEEVDPVNPTVKITVTFPDGSKLEITLPIVDSAGGSAGG [r6_617_TrMRF]”, “folding stability dG unfold” value 3.02 ± 0.16 kcal/mol. Against it:
- SAGGSAASVVEKTLSPDGTLFVTIKVDPEKKSVPFSITTPDGTPVTVTLPPNTTKTVRVPLGEAALSAGGSA [r15_336_JUSTAS] — lower, -0.678 ± 0.28 kcal/mol
- SAGGSSPLLLTSSPTPLTLPDGGTVTLTTTRVPGDNADVVTITTTPPGTGTTTVTTLPASTAAATLSAGGSA [r2_366_JUSTAS] — lower, 1.47 ± 0.034 kcal/mol
- SAGKTVTKTKTEYEYKDGKLEKKKVKTETIEPKPKIEVKEVKITLKDGSEVTAKIVSIDPKTKKVVIELSAG [r5_735_TrROS_Hall] — lower, 0.26 ± 0.099 kcal/mol
- SAGGSAGGNKPIMVRIKIWHDNGKTRRFFVQIPEGFDDPSELASELAKEFNKQYPNYRIEVEPFSAGGSAGG [r6_132_TrROS] — lower, 2.55 ± 0.052 kcal/mol
- SAGGSAGGSALKNAPGPDPALLKPRPVLVIPIPKDIPLEEAEALAEIFRKLYPDVPVVLDVEGGSAGGSAGG [r6_299_TrMRF] — lower, 0.826 ± 0.046 kcal/mol
- SAGGSAGGSAMKVLVTVTLTSPDGTKTTLTEEADPAELKGVLEAALPWTVETVTVYPAEELLSAGGSAGGSA [r18_107_JUSTAS] — lower, 1.35 ± 0.051 kcal/mol
- SAGGSAGGMKITVEEDPATNRLTITIEVDGHTVTIVYDKDNPNKITVTVSPNMTKDEILKALKSSAGGSAGG [r6_195_TrROS_Hall] — lower, 1.67 ± 0.052 kcal/mol
- SPRIKIDIPFFNANGHPQEVEIEYSPTDGMLMIKFPRNGYYIMIQIKRIEWEDGKLEIELDIFIMPPGDFSA [r9_587_TrROS] — within error, 3.01 ± 0.18 kcal/mol
- SAGMVITVPSDVPVEELLELARELARELGGGRVEVRTHPDNPEIVTATIDIPGTGKRILIINAPPGVLASAG [r5_912_TrMRF] — lower, 2.66 ± 0.038 kcal/mol
- SAGGSAGGSKTILIVLPPGEELTPEQLKALAAALPPDATLTILVYDPETKELHVFTFKLPEGLSAGGSAGGS [r12_913_TrROS_Hall] — within error, 2.99 ± 0.069 kcal/mol
- SAGKIKIEVVKREDGYVVVKIRFEDTGEELVITVPKEDEEKVKELAEELAEKLKEEGIEVEVEVRELPPSAG [r5_815_TrROS_Hall] — lower, 2.53 ± 0.11 kcal/mol
- SAGGMPPGYRVVLVTKEVETVTFEKKPGNENEYTTTPKIVPREEVVEVTSPEVLAELEAEGYEVTPASAGGS [r8_482_JUSTAS] — lower, 0.00788 ± 0.031 kcal/mol
- SAGGSAGGSGMKRTATVVERDPATGRVLLEITDGSKTTTRVLEGPPSGRGAASSPEIDSLSLLSAGGSAGGS [r12_421_JUSTAS] — lower, -1.16 ± 0.29 kcal/mol
- SAGGMTLDELRALLAAGKVTIEPVAPDRWLVTVRGPDGEEFTFEFESLEELLDALRAIPGLEVEVRPVSAGG [r13_600_TrROS_Hall] — higher, 3.29 ± 0.1 kcal/mol
- SAGGSAGGSMKTITVPPEVLAALPLEEIVERNTSPDEEVEVEFVEEPGPVTVIIDTKKKPEHHSAGGSAGGS [r12_716_JUSTAS] — lower, -0.95 ± 0.26 kcal/mol
- SAGGSSMINLTITITVKDPSTGKVTTIPLNKKLTPEEIEELVKEIIEKIEKENPDKPIEVLKVEINSAGGSA [r2_59_JUSTAS] — higher, 3.4 ± 0.21 kcal/mol
- SMVLARIKVRVRDPVTGEELDVEIDLLAPVEVAEEAAEEFRKLFPGLEVEVDLVEVVPLPPVTPEQLAKESA [r9_421_TrMRF] — lower, 1.82 ± 0.046 kcal/mol
- SAHITISIEVPLPNLKGQTPEEAREVAKDKAREIAKMFNPEFGIKVKEVEVEPHPDEGWLKVDITFEPKSAG [r14_310_TrROS] — lower, 0.998 ± 0.058 kcal/mol
- SAGGSAGGGMSFTLTSEKKVPGVNVTLTTVTGPGVTITYDPATGKATVEFPDSVTTVPLSSITTSAGGSAGG [r6_512_JUSTAS] — lower, 0.573 ± 0.024 kcal/mol
- SAGGSAKPVMVRIKFPNMPPEKLQDAFQEYGMQPQNMDPNKGEMIIMIPWEAAEEIQDKNGFKIEISAGGSA [r15_731_TrROS] — lower, -0.489 ± 0.16 kcal/mol
- SAGGSAGGSAGSSTSTSSDGVLTTYFPDGTVTSTETKPDPSTGTVLAVSTTTTPLPPDTLSAGGSAGGSAGG [r11_497_JUSTAS] — lower, 2.01 ± 0.044 kcal/mol
- SAGGSAGGSAGGKVAIVTASPEKAKEIAKKAGIKDVIIIPKNKPELLGPNVDKVILVAEKSAGGSAGGSAGG [r7_381_TrMRF] — lower, -0.629 ± 0.066 kcal/mol
- SAGGSAGGSAGDEWITIWFLFPSPEQAKDIADPLASNGLNIDVETHRMPDGNYWVNITIPSAGGSAGGSAGG [r11_677_TrROS] — lower, 2.21 ± 0.092 kcal/mol
- SAGMKPEEVRVIEIPPGMTVEEIIEAIEKEGPLRIRVEGKELEFESKEDIEAAIRNAPEPVRIEVRRLSAGG [r19_95_TrROS_Hall] — lower, 0.865 ± 0.04 kcal/mol
- SKVKPGEKVEYVEITITVDVKSVEELEKKLRELLGVKEVKVTVTEENGKLTLTIVVKSKEEADKLKELLSSA [r9_764_TrROS_Hall] — lower, 1.22 ± 0.031 kcal/mol
- SAGGSAGGSAGGMVIVKVHLPNGNTLTFVFPGMTLDEIREELASQGGKIKEIEIVPMENSAGGSAGGSAGGS [r10_572_TrROS] — lower, 2.17 ± 0.07 kcal/mol
- SRDLLKELAEKFPNFEPKGVQEEPTDNGGVKLQVIARHPKNGRYYKIEITVPPDGKIEDIEIEPVPLDDLSA [r9_274_TrROS] — lower, 2.3 ± 0.045 kcal/mol
- SAGGDVVRVRVRLRRFEIVGDRPVYRPVDIDILAEADGDPEAARRRAEREARRLAEEYGAEIEDIELFPSAG [r5_497_TrMRF] — lower, 2.15 ± 0.026 kcal/mol
- SAGGSAWIWITYQFPPGGTLEQAKEQIVNYLQRLFGWKIEIPDIEVEREGNNWTVTFPIKIEPLPGSAGGSA [r15_105_TrROS] — higher, 3.7 ± 0.16 kcal/mol
- SGMTIKILEVDFNPLGEEDEKATITLKAEIGGEEVELKIEVYRRPDGSAIAKITLILPGSGEPFEITADISA [r9_241_TrMRF] — lower, 2.61 ± 0.11 kcal/mol

test: folding stability dG unfold from chymotrypsin proteolysis; higher = more stable
In short: as §1

Point of comparison: “SAGGSAGGNKPIMVRIKIWHDNGKTRRFFVQIPEGFDDPSELASELAKEFNKQYPNYRIEVEPFSAGGSAGG [r6_132_TrROS]”, “folding stability dG unfold” value 2.86 ± 0.03 kcal/mol. Against it:
- SAGGSAASVVEKTLSPDGTLFVTIKVDPEKKSVPFSITTPDGTPVTVTLPPNTTKTVRVPLGEAALSAGGSA [r15_336_JUSTAS] — lower, -0.553 ± 0.27 kcal/mol
- SAGGSSPLLLTSSPTPLTLPDGGTVTLTTTRVPGDNADVVTITTTPPGTGTTTVTTLPASTAAATLSAGGSA [r2_366_JUSTAS] — lower, 0.603 ± 0.12 kcal/mol
- SAGKTVTKTKTEYEYKDGKLEKKKVKTETIEPKPKIEVKEVKITLKDGSEVTAKIVSIDPKTKKVVIELSAG [r5_735_TrROS_Hall] — lower, -0.0238 ± 0.075 kcal/mol
- SAGGSAGGSALKNAPGPDPALLKPRPVLVIPIPKDIPLEEAEALAEIFRKLYPDVPVVLDVEGGSAGGSAGG [r6_299_TrMRF] — lower, 1.07 ± 0.072 kcal/mol
- SAGGSAGGSAMKVLVTVTLTSPDGTKTTLTEEADPAELKGVLEAALPWTVETVTVYPAEELLSAGGSAGGSA [r18_107_JUSTAS] — lower, 0.509 ± 0.12 kcal/mol
- SAGGSAGGMKITVEEDPATNRLTITIEVDGHTVTIVYDKDNPNKITVTVSPNMTKDEILKALKSSAGGSAGG [r6_195_TrROS_Hall] — lower, 2.43 ± 0.034 kcal/mol
- SPRIKIDIPFFNANGHPQEVEIEYSPTDGMLMIKFPRNGYYIMIQIKRIEWEDGKLEIELDIFIMPPGDFSA [r9_587_TrROS] — higher, 4.55 ± 0.22 kcal/mol
- SAGMVITVPSDVPVEELLELARELARELGGGRVEVRTHPDNPEIVTATIDIPGTGKRILIINAPPGVLASAG [r5_912_TrMRF] — lower, 2.37 ± 0.028 kcal/mol
- SAGGSAGGSKTILIVLPPGEELTPEQLKALAAALPPDATLTILVYDPETKELHVFTFKLPEGLSAGGSAGGS [r12_913_TrROS_Hall] — higher, 4.14 ± 0.054 kcal/mol
- SAGGSAGGGITAKEAAELLEKYLKEKGYDYEVKIEEVDPVNPTVKITVTFPDGSKLEITLPIVDSAGGSAGG [r6_617_TrMRF] — within error, 3.21 ± 0.34 kcal/mol
- SAGKIKIEVVKREDGYVVVKIRFEDTGEELVITVPKEDEEKVKELAEELAEKLKEEGIEVEVEVRELPPSAG [r5_815_TrROS_Hall] — within error, 3.09 ± 0.21 kcal/mol
- SAGGMPPGYRVVLVTKEVETVTFEKKPGNENEYTTTPKIVPREEVVEVTSPEVLAELEAEGYEVTPASAGGS [r8_482_JUSTAS] — lower, -0.154 ± 0.17 kcal/mol
- SAGGSAGGSGMKRTATVVERDPATGRVLLEITDGSKTTTRVLEGPPSGRGAASSPEIDSLSLLSAGGSAGGS [r12_421_JUSTAS] — lower, -0.169 ± 0.12 kcal/mol
- SAGGMTLDELRALLAAGKVTIEPVAPDRWLVTVRGPDGEEFTFEFESLEELLDALRAIPGLEVEVRPVSAGG [r13_600_TrROS_Hall] — higher, 3.905 ± 0.036 kcal/mol
